Measured values: the supplement of paper PMC7125110
± gives the standard error. This sample holds only a part of the variants without activity.

B1: glmS ribozyme (parent)
chain: AUAAAAGCGCCAGAACUACAGAAAUGUAGUUGACGAGGAGGAGGUUUAUCGAAUUUUCGGCGGAUGCCUCCAAA

Variants of: B1
Test: self-cleavage kobs at 10000 uM GlcN6P; higher = faster cleavage; RNA array
Conditions: with glucosamine-6-phosphate
Outline: (§1)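 Tiles bearing barcoded ribozyme variants, transcribed in situ by E. coli RNA polymerase on sequenced MiSeq chips, were imaged over ~14 h at 37 °C using a hybridised Cy3 probe. Glucosamine-6-phosphate was supplied at 40 μM to 10 mM in HEPES/KCl/Mg(OAc)2 buffer. kobs came from one- or two-exponential decay fits to normalised per-tile medians, and weighted Michaelis–Menten fits then provided kcat and KM.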

Compared with A14U C16G G32A U56G, A6U A12U A64G is 2-fold lower in “self-cleavage kobs at 10000 uM GlcN6P” value: 0.000337 ± 5e-05 s⁻¹ for the first, 0.000171 ± 4.1e-05 s⁻¹ for the second.

First: A14C U47G U54C
Second: A64G U65C
The “self-cleavage kobs at 10000 uM GlcN6P” value of the first is 11-fold higher: 0.00121 ± 0.00018 s⁻¹ for the first, 0.000113 ± 1.6e-05 s⁻¹ for the second.

First: U2G U47C
Second: C16A G35C A64C
The “self-cleavage kobs at 10000 uM GlcN6P” value of the first is higher: 0.00421 ± 0.0012 s⁻¹ for the first, < 1e-05 s⁻¹ for the second.

First: G13A C16U G32U
Second: A12U C16G G40U
The “self-cleavage kobs at 10000 uM GlcN6P” value of the first is 2.5-fold lower: 0.000302 ± 4.9e-05 s⁻¹ for the first, 0.000769 ± 0.00016 s⁻¹ for the second.

C11U A15G C58G C68U and C11U A15G A52G are within error of each other in “self-cleavage kobs at 10000 uM GlcN6P” value: 0.000112 ± 2.5e-05 s⁻¹ for the first, 0.0001 ± 2.4e-05 s⁻¹ for the second.

First: G13A C50G G66U
Second: A12C G29C C70U
The “self-cleavage kobs at 10000 uM GlcN6P” value of the first is 18-fold lower: 6.48e-05 ± 2.1e-05 s⁻¹ for the first, 0.00119 ± 0.00031 s⁻¹ for the second.

G7A G29C U47G A53G and G7U C11U C16A U45A G51A G60C cannot be ordered by “self-cleavage kobs at 10000 uM GlcN6P” value: < 1e-05 s⁻¹ for the first, < 1e-05 s⁻¹ for the second.

Going from C11U A39U U54G to A6U G38A G66C, the “self-cleavage kobs at 10000 uM GlcN6P” value falls from 0.000492 ± 0.00011 s⁻¹ to < 1e-05 s⁻¹.

Compared with C11A U45A U46G, A6U G29U G62C is lower in “self-cleavage kobs at 10000 uM GlcN6P” value: 0.000161 ± 4e-05 s⁻¹ for the first, < 1e-05 s⁻¹ for the second.

First: C11A G66A
Second: G13A G29A G63U
The “self-cleavage kobs at 10000 uM GlcN6P” value of the first is higher: 6.59e-05 ± 1.3e-05 s⁻¹ for the first, < 1e-05 s⁻¹ for the second.

A14C A33G C58G U65C and G13C A42C C50U cannot be ordered by “self-cleavage kobs at 10000 uM GlcN6P” value: < 1e-05 s⁻¹ for the first, < 1e-05 s⁻¹ for the second.

First: A15U G32U U54A
Second: G7C C10U G60U
The “self-cleavage kobs at 10000 uM GlcN6P” value of the first is higher: 0.00058 ± 0.00013 s⁻¹ for the first, < 1e-05 s⁻¹ for the second.

A6U A12U C16U A36G and G7A A48G U65A cannot be ordered by “self-cleavage kobs at 10000 uM GlcN6P” value: < 1e-05 s⁻¹ for the first, < 1e-05 s⁻¹ for the second.

G7C G9U A14G and G9U G41U C58A G60C cannot be ordered by “self-cleavage kobs at 10000 uM GlcN6P” value: < 1e-05 s⁻¹ for the first, < 1e-05 s⁻¹ for the second.

G13C A36C U54C and A6C C10G U31A G43U C70U cannot be ordered by “self-cleavage kobs at 10000 uM GlcN6P” value: < 1e-05 s⁻¹ for the first, < 1e-05 s⁻¹ for the second.

Going from G13U G40A G66C C71A to A15C C16G U56A C61G, the “self-cleavage kobs at 10000 uM GlcN6P” value falls from 2.79e-05 ± 1.3e-05 s⁻¹ to < 1e-05 s⁻¹.

First: G9U A15C G62A
Second: C11U U69C
The “self-cleavage kobs at 10000 uM GlcN6P” value of the first is lower: < 1e-05 s⁻¹ for the first, 0.000482 ± 9.2e-05 s⁻¹ for the second.

Compared with A15U C16G G32C, C8A C16U U31C G37U A39U A42U A48U is lower in “self-cleavage kobs at 10000 uM GlcN6P” value: 8.84e-05 ± 2.6e-05 s⁻¹ for the first, < 1e-05 s⁻¹ for the second.

Going from A1U U2G A3G C8G C34G to G13C A14G G41U, the “self-cleavage kobs at 10000 uM GlcN6P” value rises from < 1e-05 s⁻¹ to 6.44e-05 ± 1.7e-05 s⁻¹.

Compared with A6G C16G C50G, A12U G13C A52U G60A A64C is lower in “self-cleavage kobs at 10000 uM GlcN6P” value: 5.57e-05 ± 2.1e-05 s⁻¹ for the first, < 1e-05 s⁻¹ for the second.

A6G A52U G60A G66A and C10U G43A C71U cannot be ordered by “self-cleavage kobs at 10000 uM GlcN6P” value: < 1e-05 s⁻¹ for the first, < 1e-05 s⁻¹ for the second.

Going from C16G G32C C70U A73C to A12C G13U U47A U56A, the “self-cleavage kobs at 10000 uM GlcN6P” value falls from 0.000111 ± 1.7e-05 s⁻¹ to 4.59e-05 ± 1.6e-05 s⁻¹ (2.4-fold).

C10U G37A G44A C70U and A6C C16U G29C C58A cannot be ordered by “self-cleavage kobs at 10000 uM GlcN6P” value: < 1e-05 s⁻¹ for the first, < 1e-05 s⁻¹ for the second.

C16A G38A A48C and C16A A64G C67G C70U cannot be ordered by “self-cleavage kobs at 10000 uM GlcN6P” value: < 1e-05 s⁻¹ for the first, < 1e-05 s⁻¹ for the second.

Compared with A15G C16U G51U, G7C C50G C61A is higher in “self-cleavage kobs at 10000 uM GlcN6P” value: < 1e-05 s⁻¹ for the first, 4e-05 ± 1.9e-05 s⁻¹ for the second.

C11G A33G G40U C70U and C8A A39U U47G cannot be ordered by “self-cleavage kobs at 10000 uM GlcN6P” value: < 1e-05 s⁻¹ for the first, < 1e-05 s⁻¹ for the second.

A14C A52G C61A and A12G U30G U47C U49C cannot be ordered by “self-cleavage kobs at 10000 uM GlcN6P” value: < 1e-05 s⁻¹ for the first, < 1e-05 s⁻¹ for the second.

First: A14G A64G C68G
Second: A12G U55A C68U
The “self-cleavage kobs at 10000 uM GlcN6P” value of the first is lower: < 1e-05 s⁻¹ for the first, 0.00042 ± 0.0001 s⁻¹ for the second.

Compared with G7C G29A, A12C A15U U31C is higher in “self-cleavage kobs at 10000 uM GlcN6P” value: < 1e-05 s⁻¹ for the first, 6.96e-05 ± 1.7e-05 s⁻¹ for the second.

A6C G59A G66A and C11U G38U U45A A48U C71G cannot be ordered by “self-cleavage kobs at 10000 uM GlcN6P” value: < 1e-05 s⁻¹ for the first, < 1e-05 s⁻¹ for the second.

A12G A14C A39C G44U G51U and A14G U30A G41U C68A cannot be ordered by “self-cleavage kobs at 10000 uM GlcN6P” value: < 1e-05 s⁻¹ for the first, < 1e-05 s⁻¹ for the second.

Going from A12U A15U C16A to G7A A39U G43U, the “self-cleavage kobs at 10000 uM GlcN6P” value falls from 0.00105 ± 0.00024 s⁻¹ to < 1e-05 s⁻¹.

A14G G40C U49G C50G G51C and C10G C11A G38C G43U G51C U56C G60C cannot be ordered by “self-cleavage kobs at 10000 uM GlcN6P” value: < 1e-05 s⁻¹ for the first, < 1e-05 s⁻¹ for the second.

C10G A14C G63U and C8U G40U C61U C67U cannot be ordered by “self-cleavage kobs at 10000 uM GlcN6P” value: < 1e-05 s⁻¹ for the first, < 1e-05 s⁻¹ for the second.

Compared with G7A C71U, C11U G32U G35U A64U is lower in “self-cleavage kobs at 10000 uM GlcN6P” value: 3.82e-05 ± 1e-05 s⁻¹ for the first, < 1e-05 s⁻¹ for the second.

A15U A53U G63C and A15U A39G G62A cannot be ordered by “self-cleavage kobs at 10000 uM GlcN6P” value: < 1e-05 s⁻¹ for the first, < 1e-05 s⁻¹ for the second.

C16A G35C U65G and A12G G44U C58G cannot be ordered by “self-cleavage kobs at 10000 uM GlcN6P” value: < 1e-05 s⁻¹ for the first, < 1e-05 s⁻¹ for the second.

C8U A12C A15U G38U A64U and C8A A12G U31G A39U cannot be ordered by “self-cleavage kobs at 10000 uM GlcN6P” value: < 1e-05 s⁻¹ for the first, < 1e-05 s⁻¹ for the second.

G13U G38C C58U C61U and A15C A36C C67A cannot be ordered by “self-cleavage kobs at 10000 uM GlcN6P” value: < 1e-05 s⁻¹ for the first, < 1e-05 s⁻¹ for the second.

With A14G U54A C70G the “self-cleavage kobs at 10000 uM GlcN6P” value was 0.000124 ± 2.6e-05 s⁻¹.

Variants of: B1
Test: self-cleavage kobs at 2500 uM GlcN6P; higher = faster cleavage; RNA array
Conditions: with glucosamine-6-phosphate
Outline: as §1

Compared with A64G U65C, U56A G63U is lower in “self-cleavage kobs at 2500 uM GlcN6P” value: 8.88e-05 ± 2.5e-05 s⁻¹ for the first, < 1e-05 s⁻¹ for the second.

U56G C58A C71A and C61U U65A C67U C70A are within error of each other in “self-cleavage kobs at 2500 uM GlcN6P” value: 3.99e-05 ± 1.6e-05 s⁻¹ for the first, 5.06e-05 ± 2.1e-05 s⁻¹ for the second.
